Here are results for three molecules from US20220411532A1 (GUNDERSEN LUTHERAN MEDICAL FOUNDATION, published 2022).

The target of experiment [1] is T1, peptide representing uncleaved AREG (human).
T1 construct: also called full length AREG peptide; intact AREG
T1 peptide: SMKTHSMIDSSLSKIAC
The experiment can be described thus: ELISA on peptides representing cleaved and uncleaved AREG. On the technique in general: In an ELISA, binding on a coated surface is turned into a signal by an enzyme label.

Experiment [2] has as its target T2, cleaved amphiregulin (cell-associated transmembrane stalk left after TACE/ADAM17 cleavage of human AREG) (human, UniProt P15514 188-252).
T2 construct: Endogenous protein on MCF7 cells and in formalin-fixed human tumor tissue; also called cleaved AREG; cell surface cleaved AREG
T2 sequence: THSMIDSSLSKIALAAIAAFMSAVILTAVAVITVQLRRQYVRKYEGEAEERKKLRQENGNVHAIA
The experiment can be described thus: live-cell fluorescence imaging of MCF-7 cells with 1A3-pHrodo. On the procedure:
In order to study internalization, 1A3 was conjugated with pHrodo iFL Red dye using pHrodo iFL Red Microscale Protein Labeling Kit (P36014, Thermo Fisher Scientific). MCF7 cells were seeded in 12 mm Nunc Glass Bottom Dish, at a density of 1×10⁵ cells/dish. After allowing the cells to attach overnight, the cells were incubated for 60 min with […] Hoechst dye for nuclei staining and LysoTracker® Green DND-26 (Thermo Fisher Scientific) for lysosomal labeling. The cells were then incubated with 1A3-pHrodo (2 μg/mL) for 20 min at 37° C. After washing the wells with PBS, the cells were supplemented with 1× live-cell imaging solution (Molecular probes, Thermo Fisher Scientific). Fluorescence images were acquired at 30 min intervals for 2.5 h with the Olympus 1X71 inverted fluorescence microscope (Olympus, Shinjuku, Tokyo, Japan). TAPI-2 (20 μM)—pre-treatment was performed overnight, with DMSO serving as a control.

The target of experiment [3] is T2, cleaved amphiregulin (cell-associated …). As to the kind of experiment: immunohistochemistry on a breast tumor tissue micro-array, 10 µg/mL antibody. How it is done:
A breast disease spectrum tissue micro-array was purchased from US Biomax Inc. (Derwood, Md., USA). The slides were deparaffinized in xylene and rehydrated by serial incubations in graded ethanol and then in water in a Histo-Tek® SL Slide Stainer (Sakura Finetek USA, Inc., Torrance, Calif., USA). Antigen retrieval was performed in a steamer by boiling slides in a container of citrate buffer (pH 6.0) for 20 min, which was then removed for 15 min of cooling on the benchtop. Slides were washed in 1× Wash buffer (Dako Agilent, Santa Clara, Calif., USA) and endogenous peroxidase was quenched by incubating with Dako Dual Endogenous Enzyme Block (S2003) for 10 min. […] Slides were washed four times in 1× Wash buffer, followed by the incubation for 45 min at room temperature in 1:100 dilution of […] immunoglobulins/HRP (Dako, P0160 or ready-to-use goat anti-rabbit HRP labeled polymer (Dako, K4003). The slides were washed twice in 1× Wash buffer and the color was developed with 3,3-diaminobenzidine tetrahydrochloride substrate chromogen system (K3468, DAKO, Santa Clara, Calif., USA). Sections were washed with water and counterstained with hematoxylin, rinsed with water, dehydrated by serial ethanol washes to 100%, cleared and mounted in Permount (Thermo Fisher Scientific). […]

B1: GMF-3E4 rabbit monoclonal IgG antibody (antibody, V domains shown)
VH: QSVKESEGRLVTPGTPLTLTCTVSGFSLSDYWMSWVRQAPGKGLEWIGIAGYSDNTYYASRAKGRFTISKTSTTVVLKITRPTTEDTATYFCVRDLYGVYSSGTTLWGPGTLVTVSS
VL: ELVMTQTPSPVSAAVGGTVTISCQSSQSVYNNNRLAWFQQKPGQPPKLLIYYASTLASGVSSRFKGSGSGTQFTLIISDVVCDDAATYYCQGYYSGGITGFGGGTEVVVK
Take B1: the binding result in experiment [1] is reported as “no binding”.

B2: 1A3 conjugated with pHrodo iFL Red dye (antibody, V domains shown)
VH: QSVKESEGRLVTPGTPLRLTCTVAGYSLSRYHMCWVRQAPGKGLEWIGMIGGSGRTDYASWAKGRFTISKTSTTVDLKITSPTTEDTATYFCSTVYTDSDGDFWGPGTLVTVSS
VL: ELDMTQTPSSKSVPVGGTVTINCQASESVYSNDRLAWFQQKPGQPPKLLIYYASTLASGVPSRFKGSGSGTQFTLTISDLECADAATYYCQSCYDMSSYGVAFGGGTELEIL
modifications: pHrodo iFL Red dye conjugated to the antibody; positions not given
notes: also called 1A3-pHrodo; 1A3 pHrodo
For the molecule B2, in experiment [2], the binding result is “binds”.

B3: GMF-1A3 rabbit monoclonal IgG antibody (antibody, V domains shown)
VH: QSVKESEGRLVTPGTPLRLTCTVAGYSLSRYHMCWVRQAPGKGLEWIGMIGGSGRTDYASWAKGRFTISKTSTTVDLKITSPTTEDTATYFCSTVYTDSDGDFWGPGTLVTVSS
VL: ELDMTQTPSSKSVPVGGTVTINCQASESVYSNDRLAWFQQKPGQPPKLLIYYASTLASGVPSRFKGSGSGTQFTLTISDLECADAATYYCQSCYDMSSYGVAFGGGTELEIL
notes: also called anti-cleaved-AREG 1A3 antibody; unconjugated 1A3
Turning to B3, the binding result in experiment [1] was “no binding”; in experiment [3], “binds”.
